Test results from paper PMC9120031.

Target: FLAG-tagged V-ATPase a3 subunit (full-length) (UniProt Q9JHF5)
Experiment: co-IP; FLAG- and V5-tagged proteins co-expressed in HEK293T cells; lysed 48 h after transfection in IP buffer (1% Triton X-100, 10% glycerol, 50 mM Tris-HCl pH 7.4, 150 mM NaCl, 1 mM dithiothreitol, 1 mM EDTA); precipitated with anti-FLAG antibody; western blot with anti-V5 (or anti-A subunit) antibody

Sequence of UniProt Q9JHF5 (Q9JHF5 entry or part of it): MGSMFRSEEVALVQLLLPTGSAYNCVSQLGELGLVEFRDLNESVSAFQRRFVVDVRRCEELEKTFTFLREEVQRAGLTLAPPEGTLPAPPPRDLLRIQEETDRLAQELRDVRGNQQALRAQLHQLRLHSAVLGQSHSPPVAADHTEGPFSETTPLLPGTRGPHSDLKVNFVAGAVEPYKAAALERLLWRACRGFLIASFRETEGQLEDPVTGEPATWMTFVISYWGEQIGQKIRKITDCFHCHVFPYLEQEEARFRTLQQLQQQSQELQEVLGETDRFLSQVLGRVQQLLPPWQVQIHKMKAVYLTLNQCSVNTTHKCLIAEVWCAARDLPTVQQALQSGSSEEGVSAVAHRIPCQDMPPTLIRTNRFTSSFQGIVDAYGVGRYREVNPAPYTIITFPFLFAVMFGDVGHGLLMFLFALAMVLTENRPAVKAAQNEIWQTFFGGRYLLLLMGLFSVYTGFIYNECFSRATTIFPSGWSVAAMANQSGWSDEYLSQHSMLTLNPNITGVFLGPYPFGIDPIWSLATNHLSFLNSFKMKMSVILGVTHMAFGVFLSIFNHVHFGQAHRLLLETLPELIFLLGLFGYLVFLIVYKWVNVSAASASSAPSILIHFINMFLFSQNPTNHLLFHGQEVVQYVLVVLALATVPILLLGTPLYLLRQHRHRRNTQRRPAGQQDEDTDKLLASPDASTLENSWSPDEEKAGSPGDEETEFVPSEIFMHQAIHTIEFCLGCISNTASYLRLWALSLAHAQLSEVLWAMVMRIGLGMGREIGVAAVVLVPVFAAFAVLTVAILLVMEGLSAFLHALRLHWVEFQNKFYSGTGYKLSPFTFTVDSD

- fold increase of Rab7 co-precipitated with a3 when V5-Mon1A and V5-Ccz1 were exogenously expressed, against without them: 3 fold
Substance: V5-tagged GDP-fixed form of Rab7(T22N) (from UniProt P51150 1-207) (natural protein)
